Assay results published in PMC7617879 (2022).

Molecular target: MMP-14 catalytic domain (Homo sapiens, UniProt P50281)
Experiment: enzyme inhibition assay

Ki: 0.18 nM
B1: N-TIMP2D-Cys-PEG N-terminal domain (protein)
chain: CSCSPVHPQQAFCNADVVIRAKAVSEKEVDSGNDIYGNPIKRIQYEIKQIKMFKGPEKDIEFIYTAPSSAVCGVSLDVGGKKEYLIAGKAEGDGKMHITLCDFIVPWDTLSTTQKKSLNHRYQMGC
modifications: PEGylated
